We go through 16 molecules from patent US20250295772A1 (ABATA THERAPEUTICS, published 2025).

Positions count from the first letter of the chain named.

The chains are these.
T1: preproinsulin 73-90 peptide complexed with HLA-DRB1*04:01 (human, UniProt P01903 26-254; P01911 30-266)
T1 MHC II alpha: not shown
T1 MHC II beta: not shown
T1 peptide: GAGSLQPLALEGSLQKRG

B1: TCR-G (TCR)
TCR alpha: QKEVEQNSGPLSVPEGAIASLNCTYSDRGSQSFFWYRQYSGKSPELIMFIYSNGDKEDGRFTAQLNKASQYVSLLIRDSQPSDSATYLCAVIYSSASKIIFGSGTRLSIRPNIQNPDPAVYQLRDSKSSDKSVCLFTDFDSQTNVSQSKDSDVYITDKTVLDMRSMDFKSNSAVAWSNKSDFACANAFNNSIIPEDTFFPSPESSCDVKLVEKSFETDTNLNFQNLSVIGFRILLLKVAGFNLLMTLRLWSS
TCR beta: SQTIHQWPATLVQPVGSPLSLECTVEGTSNPNLYWYRQAAGRGLQLLFYSVGIGQISSEVPQNLSASRPQDRQFILSSKKLLLSDSGFYLCAWSVQRLGRGGETQYFGPGTRLLVLEDLKNVFPPEVAVFEPSEAEISHTQKATLVCLATGFYPDHVELSWWVNGKEVHSGVSTDPQPLKEQPALNDSRYCLSSRLRVSATFWQNPRNHFRCQVQFYGLSENDEWTQDRAKPVTQIVSAEAWGRADCGFTSESYQQGVLSATILYEILLGKATLYAVLVSALVLMAMVKRKDSRG
B2: TCR-G DS (TCR)
TCR alpha: B1 TCR alpha with T159C
TCR beta: B1 TCR beta with S173C
B3: TCR-I (TCR)
TCR alpha: IDAKTTQPTSMDCAEGRAANLPCNHSTISGNEYVYWYRQIHSQGPQYIIHGLKNNETNEMASLIITEDRKSSTLILPHATLRDTAVYYCIVRFQSGGYQKVTFGTGTKLQVIPNIQNPDPAVYQLRDSKSSDKSVCLFTDFDSQTNVSQSKDSDVYITDKTVLDMRSMDFKSNSAVAWSNKSDFACANAFNNSIIPEDTFFPSPESSCDVKLVEKSFETDTNLNFQNLSVIGFRILLLKVAGFNLLMTLRLWSS
TCR beta: DAGVIQSPRHEVTEMGQEVTLRCKPISGHNSLFWYRQTMMRGLELLIYFNNNVPIDDSGMPEDRFSAKMPNASFSTLKIQPSEPRDSAVYFCASSIQAGGRYNEQFFGPGTRLTVLEDLKNVFPPEVAVFEPSEAEISHTQKATLVCLATGFYPDHVELSWWVNGKEVHSGVSTDPQPLKEQPALNDSRYCLSSRLRVSATFWQNPRNHFRCQVQFYGLSENDEWTQDRAKPVTQIVSAEAWGRADCGFTSESYQQGVLSATILYEILLGKATLYAVLVSALVLMAMVKRKDSRG
B4: TCR-I DS (TCR)
TCR alpha: B3 TCR alpha with T161C
TCR beta: B3 TCR beta with S173C
B5: TCR-C (TCR)
TCR alpha: RGNGKNQVEQSPQSLIILEGKNCTLQCNYTVSPFSNLRWYKQDTGRGPVSLTIMTFSENTKSNGRYTATLDADTKQSSLHITASQLSDSASYICVVGPSGGSNYKLTFGKGTLLTVNPNIQNPDPAVYQLRDSKSSDKSVCLFTDFDSQTNVSQSKDSDVYITDKTVLDMRSMDFKSNSAVAWSNKSDFACANAFNNSIIPEDTFFPSPESSCDVKLVEKSFETDTNLNFQNLSVIGFRILLLKVAGFNLLMTLRLWSS
TCR beta: DSGVTQTPKHLITATGQRVTLRCSPRSGDLSVYWYQQSLDQGLQFLIQYYNGEERAKGNILERFSAQQFPDLHSELNLSSLELGDSALYFCASSGQGFLGNTEAFFGQGTRLTVVEDLNKVFPPEVAVFEPSEAEISHTQKATLVCLATGFFPDHVELSWWVNGKEVHSGVSTDPQPLKEQPALNDSRYCLSSRLRVSATFWQNPRNHFRCQVQFYGLSENDEWTQDRAKPVTQIVSAEAWGRADCGFTSVSYQQGVLSATILYEILLGKATLYAVLVSALVLMAMVKRKDF
B6: TCR-C DS (TCR)
TCR alpha: B5 TCR alpha with T166C
TCR beta: B5 TCR beta with S172C
B7: TCR-F (TCR)
TCR alpha: EDQVTQSPEALRLQEGESSSLNCSYTVSGLRGLFWYRQDPGKGPEFLFTLYSAGEEKEKERLKATLTKKESFLHITAPKPEDSATYLCAVQATGYALNFGKGTSLLVTPHIQNPDPAVYQLRDSKSSDKSVCLFTDFDSQTNVSQSKDSDVYITDKTVLDMRSMDFKSNSAVAWSNKSDFACANAFNNSIIPEDTFFPSPESSCDVKLVEKSFETDTNLNFQNLSVIGFRILLLKVAGFNLLMTLRLWSS
TCR beta: GAGVSQSPSNKVTEKGKDVELRCDPISGHTALYWYRQSLGQGLEFLIYFQGNSAPDKSGLPSDRFSAERTGGSVSTLTIQRTQQEDSAVYLCASNLGGSRQPQHFGDGTRLSILEDLNKVFPPEVAVFEPSEAEISHTQKATLVCLATGFFPDHVELSWWVNGKEVHSGVSTDPQPLKEQPALNDSRYCLSSRLRVSATFWQNPRNHFRCQVQFYGLSENDEWTQDRAKPVTQIVSAEAWGRADCGFTSVSYQQGVLSATILYEILLGKATLYAVLVSALVLMAMVKRKDF
B8: TCR-F DS (TCR)
TCR alpha: B7 TCR alpha with T157C
TCR beta: B7 TCR beta with S171C
B9: TCR-D (TCR)
TCR alpha: NSVTQMEGPVTLSEEAFLTINCTYTATGYPSLFWYVQYPGEGLQLLLKATKADDKGSNKGFEATYRKETTSFHLEKGSVQVSDSAVYFCALSEKTSYDKVIFGPGTSLSVIPNIQNPDPAVYQLRDSKSSDKSVCLFTDFDSQTNVSQSKDSDVYITDKTVLDMRSMDFKSNSAVAWSNKSDFACANAFNNSIIPEDTFFPSPESSCDVKLVEKSFETDTNLNFQNLSVIGFRILLLKVAGFNLLMTLRLWSS
TCR beta: NAGVTQTPKFRILKIGQSMTLQCTQDMNHNYMYWYRQDPGMGLKLIYYSVGAGITDKGEVPNGYNVSRSTTEDFPLRLELAAPSQTSVYFCASSYGPGGSEAFFGQGTRLTVVEDLNKVFPPEVAVFEPSEAEISHTQKATLVCLATGFFPDHVELSWWVNGKEVHSGVSTDPQPLKEQPALNDSRYCLSSRLRVSATFWQNPRNHFRCQVQFYGLSENDEWTQDRAKPVTQIVSAEAWGRADCGFTSVSYQQGVLSATILYEILLGKATLYAVLVSALVLMAMVKRKDF
B10: TCR-E DS (TCR)
TCR alpha: B9 TCR alpha with E93V, T160C
TCR beta: NAGVTQTPKFQVLKTGQSMTLQCAQDMNHNSMYWYRQDPGMGLRLIYYSASEGTTDKGEVPNGYNVSRLNKREFSLRLESAAPSQTSVYFCASSRDRGPETQYFGPGTRLLVLEDLKNVFPPEVAVFEPSEAEISHTQKATLVCLATGFYPDHVELSWWVNGKEVHSGVCTDPQPLKEQPALNDSRYCLSSRLRVSATFWQNPRNHFRCQVQFYGLSENDEWTQDRAKPVTQIVSAEAWGRADCGFTSESYQQGVLSATILYEILLGKATLYAVLVSALVLMAMVKRKDSRG
B11: TCR-D DS (TCR)
TCR alpha: B9 TCR alpha with T160C
TCR beta: B9 TCR beta with S170C
B12: TCR-E (TCR)
TCR alpha: B9 TCR alpha with E93V
TCR beta: B10 TCR beta with C170S
B13: TCR-H (TCR)
TCR alpha: EDQVTQSPEALRLQEGESSSLNCSYTVSGLRGLFWYRQDPGKGPEFLFTLYSAGEEKEKERLKATLTKKESFLHITAPKPEDSATYLCAVQLSDSNYKLTFGKGTLLTVNPNIQNPDPAVYQLRDSKSSDKSVCLFTDFDSQTNVSQSKDSDVYITDKTVLDMRSMDFKSNSAVAWSNKSDFACANAFNNSIIPEDTFFPSPESSCDVKLVEKSFETDTNLNFQNLSVIGFRILLLKVAGFNLLMTLRLWSS
TCR beta: NAGVTQTPKFQVLKTGQSMTLQCAQDMNHNSMYWYRQDPGMGLRLIYYSASEGTTDKGEVPNGYNVSRLNKREFSLRLESAAPSQTSVYFCASRGQVNEKLFFGSGTQLSVLEDLNKVFPPEVAVFEPSEAEISHTQKATLVCLATGFFPDHVELSWWVNGKEVHSGVSTDPQPLKEQPALNDSRYCLSSRLRVSATFWQNPRNHFRCQVQFYGLSENDEWTQDRAKPVTQIVSAEAWGRADCGFTSVSYQQGVLSATILYEILLGKATLYAVLVSALVLMAMVKRKDF
B14: TCR-H DS (TCR)
TCR alpha: B13 TCR alpha with T159C
TCR beta: B13 TCR beta with S169C
B15: TCR-B (TCR)
TCR alpha: EDKVVQSPLSLVVHEGDTVTLNCSYEVTNFRSLLWYKQEKKAPTFLFMLTSSGIEKKSGRLSSILDKKELFSILNITATQTGDSAVYLCAVNSGAGSYQLTFGKGTKLSVIPNIQNPDPAVYQLRDSKSSDKSVCLFTDFDSQTNVSQSKDSDVYITDKTVLDMRSMDFKSNSAVAWSNKSDFACANAFNNSIIPEDTFFPSPESSCDVKLVEKSFETDTNLNFQNLSVIGFRILLLKVAGFNLLMTLRLWSS
TCR beta: DAEITQSPRHKITETGRQVTLACHQTWNHNNMFWYRQDLGHGLRLIHYSYGVQDTNKGEVSDGYSVSRSNTEDLPLTLESAASSQTSVYFCASSSGGLYEQYFGPGTRLTVTEDLKNVFPPEVAVFEPSEAEISHTQKATLVCLATGFYPDHVELSWWVNGKEVHSGVSTDPQPLKEQPALNDSRYCLSSRLRVSATFWQNPRNHFRCQVQFYGLSENDEWTQDRAKPVTQIVSAEAWGRADCGFTSESYQQGVLSATILYEILLGKATLYAVLVSALVLMAMVKRKDSRG
B16: TCR-B DS (TCR)
TCR alpha: B15 TCR alpha with T160C
TCR beta: B15 TCR beta with S169C

In this assay the target is T1, preproinsulin 73-90 peptide complexed …. The assay is described as follows: cell-based or functional assay.
Take B1: the “EC50 (nM) of CD69 upregulation, conventional CD4+ T cells + BLS-DRB1*04:01 cells, peptide titrated” value (shortened to “EC50 (nM) of CD69 upregulation”) turned out to be 11.2 nM.
In the case of B2 it was 1.89 nM; in that of B3, 14.9 nM.
In the case of B4 it was 8.03 nM.
Turning to B5, the “EC50 (nM) of CD69 upregulation” value came to 156 nM.
In the case of B6 it was 24.2 nM; in that of B7, 1.5 nM; in that of B8, 1.36 nM.
In the case of B9 it was 4.42 nM.
Turning to B10, the “EC50 (nM) of CD69 upregulation” value came out at 3.47 nM.
Regarding B11, the “EC50 (nM) of CD69 upregulation” value is 2.18 nM.
In the case of B12 it was 7.78 nM; in that of B13, 0.93 nM.
In the case of B14 it was 0.62 nM; in that of B15, 5.68 nM; in that of B16, 3.78 nM.
